Measured values as given in the nanobody polyreactivity screen of Harvey et al. (2022).

Assay: yeast display, Sf9 membrane polyspecificity reagent, FACS + sequencing; frameworks hold sequencing errors
Method in brief: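 Galactose induction of a Saccharomyces cerevisiae BJ5465 synthetic nanobody display library ran 36–48 hours. The cells were then stained for 1 hour at 4 °C with 10% biotinylated, detergent-solubilized Sf9 membrane reagent, pulled down on streptavidin microbeads and FACS-sorted into low and high (top ~1%) gates on expression and reagent-binding fluorescence. Labels for polyreactivity follow the gate of origin.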

Row | Sequence | polyreactivity (PSR sort gate)
1 | QVQLVESGGGLVQAGGSLRLICAASGSIFKIYAMGWYRQAPGKERELVARITRRGGRTNYADSVKGRFTISRDNAKNTVYLQINSLKPEDTAVYYCAATVYPSVYGENHYGYWGQGTQVTVSS | high polyreactivity
2 | QVQLVESGGGLVQAGGSLRLSCAASGLTLFYYVMGWYRQAPGKERELVAANTTSGGRTYYADSVKGRFTISRDNAKHTVYLQMNSLKPEDTAVYYCAAQSSVAYIHTPTYRYDYWGQGTQVTVSS | high polyreactivity
3 | QVQLVDSGGGLVQAGVRLRLSCAASGNIFSAYAMGWYRQAPGKERELVASIDWNGGRTYYADSVKGRFTISRDNAKNTVYLQMNSLKPEDTAVYYCNAGYSYRKYDYLGQGTQVTVSS | high polyreactivity
4 | QVQLVESGGGLVQAGGSLRLSCAASGSTFPSYVMGWYRQAPGKEREMVAAISSSGGRTYYADSVKGRFTISRDNAKNTVYLQMNSLKPEDTAVYYCAAKRGPLVNDHQFWGQGTQVTVSS | high polyreactivity
5 | QVQLVESGGGLVQAGGSLRLSCAASGSTFYVNAMGWYRQAPGKERELVASISSSSGSTYYADSVKGRFTISRDNAKNTVYLQMNSLKPEDTAVYYCAAEVGIFIWFDYWGQGTQVTVSS | low polyreactivity
6 | QVQLVESGGGLVQAGGSRRLSCAGSGRIFHYYAMGWYRPAPGTERELVAAISRTGSTYYADSVKGRFTISRDNAINTVYLQMNSLKPEDTAVYYCAADYWPQSNRWVYFRYGYWGQGTQVTVSS | high polyreactivity
7 | QVQLVEAGGGLVQAGGSLRLSCAASGRIFGRYVMGWYRQAPGKERELVASISTRRGRTYYADSVKGRFTSSRDNAKNTVYLQMNSLKPEDTAVYYCATAYSSHYGIHRRYEYWGQGTQVTVSS | high polyreactivity
8 | HVQHVESAGGLVQAGGSLRLSCAASGSIFTYNALGGYIQAPGKERELVAAIDYSGGSTYYADSVKGRFTISRDNAKNTVYLQMNSLKPEDTAVYYCAAPWVPYPGYSLYGYDYWGQGTQVTVSS | low polyreactivity
9 | QVQLVESGGGLVQAGGSLRLSCAASGFIFGGYAMGWYRQAPGKERALVAAITRSGGSTYYADSVKGRFTISRDNAKNTVYLQMNSLKPEDTAVYYCAAERQPYRTSSYNYWGQGTQVTVSS | high polyreactivity
10 | QVQLVESGGGLVQAGGSIRLSCAASGSTFAKNAMGWYRQAPGKERELVAAISRGGNTYYADSGKGRFTISRDNAKNTVYLQMNSLKPEDTAVYYCSKLPFTRTYLGSLYDYWGQGTQVTVSS | high polyreactivity
11 | QVQLVESGGGLVQAGGSLRLSCAASGSTFYYYAMGWYRPAPGKEREFVASISSRGTSTYYADSVKGRFTISRDNAKNTVYIQMISLKPEDTAVDYGAARVWGPTRAYDYWGQGTQVTVSS | high polyreactivity
12 | QVQLVESGGGLVQAGGSLRLSCAASGSNFYGYAMGWYRQAPGKERELVAAISSGGRTKYADSVKGRFTISRDNAKNTVYLQMNSLKPEDTAVYYCNVSYLVDRWKFGWSMDYWGQGNQVTVSS | low polyreactivity
13 | QVQIVESGGGLVQAGGILRLSCAASGRIFYTNAMGWYRKAPAKERELVAAIDNSDSTTYYADSVKWRYTISRDNAKNTVYLQMNSLKPEDTAVYYCAAESYLYTVTFEYWGQGTQVTVSS | high polyreactivity
14 | QVQLVESGGGLVQAGGSLRISCADSGSIFSLYAMGWYRPAAGKERELVAAIRRGGSTYYADSVKGRFTISRDNAKNTVYLQMNSLIPEDTAVYYCAADAYSGYSDYYWGQGTHVTVSS | low polyreactivity
15 | QVQLVESGGGLVQAGGSLRLSCAASGSTFDYYTMGWYRQAPGKERELVAAISRSGGSTRYADSVKGRFTISRDNAKNTVYLQMNSLKPEYTAVYYCAAKLWRYYHYDYWGQGTQVTVSS | low polyreactivity
16 | QVQLVESGGGLVQAGGSLRLSCAASGSTFGWNAMGWYRQAPGKERDLVAAITGGGSTYYADSVKGRFTISRDNAKNTVYLQMNSLKPEDSAVYYCEGDYWGQGTQVTVSS | low polyreactivity
17 | QVQLVESGGGLVQAGGSLRLSCAASGSTFGRNAMGWYRQAPGKERELVAAISYSGGSTYYADSVKGRFTISRDNAKNTVYLQMNSLKPEDTAVYYCNTVPKPWYSWKYAYDYWGQGTQVTVSS | high polyreactivity
18 | QVQLVESCGGLVQAGGSLRLSCAASGRTFRSYTMGWYRQAPGKERELVASIRTSSGCTYYADSVKGRFTISRDNAKNSVYLKMNSLKPEDTAVYYCAKTLLYPWFRTVAVDYWGQGTQVTVSS | low polyreactivity
19 | QDQLVESGGGLVQAGGSLRISCAASGITFRYYAMGWYRQAPGKERELVAAITSGGRTYYADSVKGRFTISRDNAKNRVYLQMISLKPEDTAVYYGNAVTFSFYLYAWGQGTQVTVSS | high polyreactivity
20 | QDQLVESGGVLVQAGGSLRLSCAASGNIFAVYAMGWYRQAPGKERELVAAITTGTNTYADSVKGRFTISRDNAKNTVYLQMNSLKTEDTAVYYCAARSYRPLDYWGQGTQVTVSS | low polyreactivity
21 | QVQLVESGGGLVQAGGSLRLSCAASGLTFKYNAMGWYRQAPGKERELVAGISWSTSSTYYADSVKGRFTISRDNAKNTVYLQMNSLKPEDTAVYYCAVYTITGRVLRQGPLYRHYYWGQGTQVTVSS | high polyreactivity
22 | QVQLVESGGGLVQAGGSLRLSCAASGSIFGYYARGWYRQASGKESELVADITSSGSTYYADSVKGRFTISRDNAKNTVYLQMNSLKPEDTAVYYCAADQYFLGSIDGFEYWGQRTQVTVSS | low polyreactivity

Row | Sequence | polyreactivity (PSR sort gate)
23 | QVQLVESGGGLVQAGGSLRLTCAASGFIFDEYAMGWYRQAPGKERELVAAISWSGSRTYYADSVKGRFTISRDNAKTTVYLQMNSLKPEDTAVYYCAKVTGVGAGRRNYWGQGTQVTVSS | high polyreactivity
24 | QVQLVESGGGLVQAGGSLRLSCAASGSIFFWNTMGWYRQAPGKVRELVAAITVSGGSTYYADSVKGRFTISRDNAKNTVYLQMNSLKPEDSAVYYCAADPYRRYGYDSYNYWGQGTQVTVSS | high polyreactivity
25 | QVQLVESGGGLVQAGGSLRVSCAASGIIFNRYAMGWSREAPGKERELVAAITSSGGSTHYADSVKGRFTISRDNAKNTVYLQMNSLKPEDTAVYYCAKQFPYNYRYYLHYYYWGQGTQVTVSS | low polyreactivity
26 | QVQLVESGGGLVQAGGSLRLSCAASGNTFTFYAMGWYRQAPGTERELVASITGRGGSTYYADSVKGRFTISRDNAKNTVYLQMNSLKPEDTAVYYCNADYNSFRYRPPTTRDYWGQGTQVTVSS | low polyreactivity
27 | QVQLVESGGGLVQAGGSLRLICAASGSIFITNAMGWYRQAPGKEREMVAAISGRGGSTYYADSVKGRFTISRDNAKNTVYLQMNSLKPEDTAVYYCNAYSYRVSGYDYWGQGTQVTVSS | high polyreactivity
28 | QDQLVESGGGLVQAGGSLRLSCAASGFTLATYAMGWYSPAPGKEREWVAAITRSGGSTDDADSVKGRFTISRDIAKNTVYVQMNSLKPEDTAVYYCNAREVRYEYNYWGHGTQVTVSS | low polyreactivity
29 | QVQLVESGGGLVQAGGSLRLSCAASGSTFDSYAMGWYRQAPGKERELVAAISYNGSSTYYADSVKGRFTISRDNAKNTVYLQMNSLKPEDTAVYYCAAAPGFSAGHHDYWGQGTQVTVSS | low polyreactivity
30 | QVQLVESGGCLVQAGGSLRLSCAASGSIFDAYDKGWYRQAPGKERELVAAISRSGASTYYADSVKGRFTISRDNAKNTVYLQMNSLKPEDTAVYSCAARDRQRVSYGYWGQGTQVTVTS | high polyreactivity
31 | QVQLVESGGGLVQAGGSLRLSCAASGSIFRTNAMGWYRQAPGKERELVAAISRRGSNTYYADSVKGRFTISRDNAKNTVYLLMNSMKPEDTAVYYCAADVSGSKYDYWGQGTQVTVSS | high polyreactivity
32 | QVHLVESGAGLVKAGGSLRLSCAASGRTFRYNAMGWYRQQPGNERELVATITTRGGSTYYADSVKGRFTISRDNAKNTVYLQMNSLKPEDTAVYYCATKWPVYPTGYDYWGQGTQVTVSS | low polyreactivity
33 | QVQLVESGGGLVQAGGSLRLSCAASGRIFASYAMGWYRQAPGKERELVAAISAGGGSRTYYADSVKGRFTISRDNAKNTVYLQMNSLKPEDTAVYYCNTANSWQRQYYYWGQGTQVTVSS | high polyreactivity
34 | QVQLVESGGGLVQAGGSLRLSCAAYGSIFLYYTMGRYRQAPGKERELVAAISRSGGSTYYADSEKGRFTISRDNALNTVYLQMNSLKPEDTAVYFCGSRSGYIYEYWGQGTQVTVSS | high polyreactivity
35 | QIQLVESGGGLDQAGGSLRISCAASAYTYVDYIGCYIPAPGKERELVADIDNSGGGTYYADSVTGRFTISRDNAKNTVYFLMNSLKAEDTAVYYCAAEFPYDDYYSNRDYDYWGQGTQVTVSS | low polyreactivity
36 | HVQLVESGGGLVQAGGSLRLSCAASGFIFKPYDMGLYRQAPGKERELVAAISWTGTSTYYADSVKGRFTISRDNAKNTVYLQINSLKPEDTAVFYCAKRWSAGAQHGFDYWGQGTQVTLSS | low polyreactivity
37 | QVQLVESGGGLVQAGGSLRLSCAASGYTFWDNAMGWYRQAPGKERELVAAITIRSGRTYYADSVKGRFTISRDNAKNTVYLQMNSLKPEDTAVYYCNAQIYTYRTGRGYSRMDYWGKGTQVTVSS | high polyreactivity
38 | QVQLVESGGGLVQAGGSLRLSCAASGSTFISNAMGWYRQAPGKERELVASITWTDVSTYYADSVKGRFTISRDNAKNTVYLQMNSLKPEDTAVYYCAAVTGLSSNDGYDYWGQGTQVTVSS | low polyreactivity
39 | QVQLVESGGGLVQAGGSFRLSCAASGSIFVVYAMGWYRQAPGKERELVAAITSGGSTYYADSVKGRFTISRDNAKNTVYLQMNSLKPEDTAVYYCNAKRTGPWFLHVPVYYWGQGTQVTVSS | low polyreactivity
40 | QVQLVESGGGLVQAGGSLRLSCAASGRTFVFNAMGWYRQAPGKERELVAAISARGGRTYYADSVKGRFTISRDNAKNTVYLQMNSLKPEDTAVYYCATVPYPNRKVGVDYWGQGTQVTVSS | high polyreactivity
41 | QVQLVESGGGLVQAGGSLRLSCAASGRTFVYNAMGWYRQAPGKERELVAAITSGGSTYYADSVKGRFTMSRDNAKNTVYLQMNSLKPEDTAVYYCDGYKRGYYWGQGTQVTVSS | high polyreactivity
42 | QVQLVESGGGLVQAGGSLRLSCAASGNIFFRNAMGWYRQAPGKERELVAAISWRGTSTYYADSVKGRFTISRDNAKNTVYLQMNSLKPEDTAVYYCAARGLWPYDYWGQGTQVTVSS | low polyreactivity
43 | QVQLVESGGGLVQAGGSLRLSCAASGRTFYSYAMGWYRQAPGKERELVAAINTSGGRTHYADSVKGRFTISRDNAKNTVYLQMNSLKPEDTAVYYCAAEVFRTRTWEYYYWGQGTQVTVSS | high polyreactivity
